Source: paper PMC4383634, “Dual-Specificity Anti-sigma Factor Reinforces Control of Cell-Type Specific Gene Expression in Bacillus subtilis” (PLoS Genetics, 2015)

What was measured:
Details in all cases: both partners purified
[1] = molecular target: T1, GST-σ^E fusion protein, lacking its pro region (sigma fragment a) (B. subtilis, UniProt P06222 30-239); assay: pull-down; GST or GST-σ^E fusions on glutathione beads incubated with CsfB-Strep II (100 nM); after washing, eluted proteins immunoblotted with anti-Strep II tag antibody
T1 construct: source: E. coli, overproduced and partially purified; not shown: GST, N-terminal, kept
T1 sequence (looked up): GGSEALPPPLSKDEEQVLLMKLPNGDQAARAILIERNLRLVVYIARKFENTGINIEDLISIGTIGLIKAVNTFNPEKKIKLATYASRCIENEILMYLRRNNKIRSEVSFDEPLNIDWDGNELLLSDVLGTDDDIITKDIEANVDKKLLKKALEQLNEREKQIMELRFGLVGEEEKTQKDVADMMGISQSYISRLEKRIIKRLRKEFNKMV

GST-σ^(E 30–172) = molecular target: T2, GST-σ^(E 30–172) (B. subtilis, UniProt P06222 30-172); assay: as above
T2 construct: σ^E of B. subtilis, residues 30-172, regions 2.1 through 3.1; also called fragment d; regions 2.1 through 3.1; source: E. coli, overproduced and partially purified; not shown: GST, N-terminal, kept
T2 sequence (looked up): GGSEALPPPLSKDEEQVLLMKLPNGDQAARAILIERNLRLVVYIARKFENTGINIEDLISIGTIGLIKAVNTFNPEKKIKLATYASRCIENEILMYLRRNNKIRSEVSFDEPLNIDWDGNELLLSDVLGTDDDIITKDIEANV

GST-σ^(E 30–141) = molecular target: T3, GST-σ^(E 30–141) (B. subtilis, UniProt P06222 30-141); assay: as above
T3 construct: also called fragment c; regions 2.1 through 2.4; source: E. coli, overproduced and partially purified; not shown: GST, N-terminal, kept
T3 sequence (looked up): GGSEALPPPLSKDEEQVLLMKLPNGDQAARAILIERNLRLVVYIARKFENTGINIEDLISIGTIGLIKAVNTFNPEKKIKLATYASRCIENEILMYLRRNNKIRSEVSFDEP

[2] = molecular target: T4, σ^E, untagged, lacking its pro-sequence (B. subtilis, UniProt P06222 30-239); assay: pull-down; Ni2+-NTA affinity chromatography: His6-CsfB held on the column, untagged purified σ^E or σ^K applied, eluted with an imidazole buffer, SDS-PAGE and Coomassie staining
T4 construct: printed molecular weight 29 kDa; a tag was perhaps removed; also called purified σ^E; source: E. coli, overproduced, purified
T4 sequence (looked up): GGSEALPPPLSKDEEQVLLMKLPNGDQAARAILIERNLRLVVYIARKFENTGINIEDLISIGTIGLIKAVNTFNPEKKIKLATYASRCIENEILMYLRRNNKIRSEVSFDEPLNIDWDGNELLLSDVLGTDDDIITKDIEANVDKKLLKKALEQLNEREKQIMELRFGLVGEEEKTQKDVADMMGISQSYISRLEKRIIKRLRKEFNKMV

Row | Binder | binding result [1] | binding result (GST-σ^(E 30–172)) | binding result (GST-σ^(E 30–141)) | binding result [2]
1 | CsfB-StrepII-tagged protein (natural protein, B. subtilis, UniProt P37534 1-64, looked up, CsfB (Gin), anti-sigma factor of B. subtilis; source: E. coli, overproduced and partially purified; not shown: Strep II tag, C-terminal, kept) MDETVKLNHTCVICDQEKNRGIHLYTKFICLDCERKVISTSTSDPDYAFYVKKLKSIHTPPLYS | binds | binds | binds | –
2 | His6-CsfB (natural protein, B. subtilis, UniProt P37534 1-64, looked up, CsfB (Gin), anti-sigma factor of B. subtilis; the plasmid is described in S1 Text; also called purified CsfB; source: E. coli, overproduced, purified (Ni-NTA, Superdex 75); not shown: His6, N-terminal, kept) MDETVKLNHTCVICDQEKNRGIHLYTKFICLDCERKVISTSTSDPDYAFYVKKLKSIHTPPLYS | – | – | – | binds
